The text below walks through data of patent US20250171542A1.

This experiment deals with Trop2 on MDA-MB-231 cell surface (UniProt P09758). The experiment can be described thus: cell-based or functional assay.
Trop2 on MDA-MB-231 cell surface, sequence (P09758 27-323 limits assumed): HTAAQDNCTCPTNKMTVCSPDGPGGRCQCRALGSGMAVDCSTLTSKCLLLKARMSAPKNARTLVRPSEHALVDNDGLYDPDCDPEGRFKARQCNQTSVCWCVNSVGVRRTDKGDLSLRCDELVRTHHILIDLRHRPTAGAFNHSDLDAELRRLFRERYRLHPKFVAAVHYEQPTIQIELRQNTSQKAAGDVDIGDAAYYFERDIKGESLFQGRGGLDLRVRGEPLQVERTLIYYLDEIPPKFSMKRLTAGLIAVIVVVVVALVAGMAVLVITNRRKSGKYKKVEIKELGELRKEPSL

B1: Trodelvy (Sacituzumab govitecan-hziy, Immunomedics) (antibody, INN chains, looked up, V domains shown)
VH: QVQLQQSGSELKKPGASVKVSCKASGYTFTNYGMNWVKQAPGQGLKWMGWINTYTGEPTYTDDFKGRFAFSLDTSVSTAYLQISSLKADDTAVYFCARGGFGSSYWYFDVWGQGSLVTVSS
VL: DIQLTQSPSSLSASVGDRVSITCKASQDVSIAVAWYQQKPGKAPKLLIYSASYRYTGVPDRFSGSGSGTDFTLTISSLQPEDFAVYYCQQHYITPLTFGAGTKVEIKR
modifications: govitecan (SN-38) payload
As for B1, the Internalization (%), FACS, 0.25 µg/ml, 2 h stood at 35.7%; the Internalization (%), FACS, 0.25 µg/ml, 4 h was 45.1%; the Internalization (%), FACS, 0.5 µg/ml, 2 h is 38%; the Internalization (%), FACS, 0.5 µg/ml, 4 h amounted to 45.6%. This molecule also returned an Internalization (%), FACS, 1 µg/ml, 2 h of 36.5%; an Internalization (%), FACS, 1 µg/ml, 4 h of 44.5%; an Internalization (%), FACS, 2 µg/ml, 2 h of 36.2%; an Internalization (%), FACS, 2 µg/ml, 4 h of 46.1%.
